Patent US20080319163A1, “Method for Isolating and Purifying Immuno-Modulating Polypeptide from Cow Placenta” (priority 2005, published 2008)
“Also recorded” adds a separate entry of the source.

Legend:
[1] = Isoelectric point by CIEF (capillary isoelectric focusing); format: physicochemical; conditions: determined by CIEF
Source text: 3) Determining isoelectric point of immuno-modulating polypeptide by CIEF.
The foresaid methods 2)-5) are the normal methods known as those skilled in the art.

mice spleen lymphocyte = assay: Stimulating lymphocyte proliferation in vitro (MTT method); format: cell-based; conditions: mice spleen lymphocyte suspension, 68 h + 4 h MTT, OD 570 nm; chromatography fractions screened; values only in figures; listed as component 4
Description: 1) Stimulating Lymphocyte Proliferation in vitro
Culturing Cells • 1 Preparing Spleen Lymphocyte Suspension:
Remove out the mice spleen under sterile condition, separate lymphocyte by lymphocyte separation medium, regulate the cell concentration to 1×10^6/ml with complete 1640 culture solution. • 2 Experiment Arrangement:
Set control group and experiment group separately to identify the activity of stimulating spleen lymphocyte proliferation by every component. • 3. Experiment Method:
Add 100 μL mice spleen lymphocyte suspension (1×10^6/mL) to 96 well cultured plates. Add 100 μL saline/sample to control group and experiment group separately. Mix to homogenous gently, culture in incubator for 68 h at 37° C. under 5% CO2. Add 20 μl MTT to every well under sterile condition, Mix to homogenous gently, continue to culture for 4 h, add 100 μl dimethyl sulfoxide to every well, keep at room temperature for 10 min, then determine OD of every well by ELISA at 570 nm. • 4. Data Processing
The spleen lymphocyte proliferation rate of experiment group is calculated by the following formula: […]
The value of P is calculated by variance analysis, and significant difference is calculate by T test.

With “Tyr-X-Phe-Leu-Gly-Leu-Pro-Gly-X-Thr [immuno-modulating polypeptide]” the isoelectric point [1] was 3.82 and the “activity determined by stimulating lymphocyte proliferation in vitro” value (mice spleen lymphocyte) was “high-purity inmmuno-modulating polypeptide; also recorded: high-purity immuno-modulating polypeptide”.
